Experimental data reported in the DeepSol protein solubility set.

test: soluble on expression in E. coli; label from the status in PepcDB or PDB records

Row | Sequence | soluble on expression in E. coli
1 | MGSDKIHHHHHHMHVVELRFECFDNTTITAAERAINGLLEAYRANGQVLGREFAVAFNEGEFRVRLLLPEKSSLAKRFNSPWVNYALEELTQAKLLHPREKYIGQDINSEVSSTETPSWQLLYTSYVHMCSPLRNGDTLQPIPLYQIPATFNGDHKRVIKWQTEWQACDELQMAAATKAEFAALDELSQCDSDLFRRGWDLRGRIEYLTKIPTYYYLYRVGGESLAAEQQRPCPRCGNTHWLLETPLLDLFHFRCDNCRIVSNISWDHL | not soluble
2 | MIKIDDEAITFVVQGPVQASASRQQIAGITEQCLNSIRRFFPKSTIILSTWKGQPLDGLDYDQVLELDDPGANTVFYDGQPIKLNNNRQMYSTHMGLKAVKTPYAVKLRTDNLLTGRQFVELYERYADLPRAQNYQFLTQRVLTSSTFFISSHYGHPVHFHKSDLFDFGLTQDLLTIWSDRWIPELHFTLKPGYKARHPATEQVLCLNWISALLDEEHHIESKTCDHAGLGENFWPQFMANNLLMDCPENIGLDVTERFYKRGNLALEYDLKDWLHLNQITSIPYDKKRLYRYYRNQIGRILKKIHSFN | not soluble
3 | PDGPTQLRALNLTEGFAVLHWKPPQNPVDTYDIQVTAPGAPPLQAETPGSAVDYPLHDLVLHTNYTATVRGLRGPNLTSPASITFTTGLEAPRDLEAKEVTP | soluble
4 | MSLNKKDVIRTLERIAIYMELKGENPFKISAYRKAALALEQDERTLDEIEDPATLKGIGKGTAEVILDLKETGESSLMHELKESVPAGLIPLLQLPSLGGKKIAKLYQELGVIDLATLKEACEQGNVRELAGFGKKSEEKILAAIAELSNKPERFPIAFVLPIAVEIEAQLKEMDSIHRFSRAGSLRRMRETVKDLDYIISTDDPEAVREQLLQLKHMGKTIASGDTKVSVELEYDYPISVDFRLVKDEAFATTLHHFTGSKEHNVKMRQLAKARGEKISEYGVENTETGDVKTFADESAFFKHFGLTYIPPEAREDQGEVELFKEAHALVTLEDIRADLHMHTTWSDGAHSIEEMAEAARQRGYEYIAITDHSKFLRVANGLSEERLKEQHAKIRELNERYDDFTIFTGIEMDILPDGTLDYEDPILAEVDFVIASIHSSFSQPREKIMDRLKTALVNHHVDLIAHPTGRLIGRREGYDVDVDMLIELAKETNTALELNANPNRLDLNSEALKKAQEQGVVMAINTDSHTKETFSYMEYGVGVARKGLIRPETVINTWPLERFCAFLRRHQPEGHHHHHH | soluble
5 | MSLTGLCDSHLHTPLCGHATGTPREYAQAALDAGLSGLCFTDHMPMPRWYDAPWRMKLEQLPEYIAEIQAVQQEFAGRLDVRLGLEADFHPGTEKFVEKVLGMFDWDYVIGSVHYLGAWGFDNPEFVAEYEERDLGGLYRDYYALVEGAARSGLFDAIGHLDLPKKFGHLDPDPVYALHALDVVAGQGLALDFNTAGWRKPVAEAYPAPDLVRAAAERGIPFVLGSDAHQPGEVGFRFADAVKEIRDVGGRTVTFRHRKMQEGHHHHHH | soluble
6 | MARARARPGAVMSISGGLVRRRAEGRPLPAASAMSTVTLHRVLRASPERVYRAFLDAAALSKWLPPHGFTNTVEHLDARVGGTFRMAFTQFGSGQRHAFGGTYRELVPNALLRYDDVFDDPSLPGTLLTTVRLLPLPCGTDLHVVQEGIPEQIPLHACYLGWQESLTLLALLVEAQRAELEHHHHHH | not soluble
7 | MGSDKIHHHHHHMNNIGLILEGGGMRGVYTAGVLDFFMDKNLYFPYVSGVSMGACNAASYVSKQRGRTKSVTVDLADDSRYISLKNFIKYKSIFGMDFIFDEVPNKLFPFDFNTFSNSTQKLVIGTTDCLTGKEVYFSHSSSNDILDIIRASSSLPFISEPVKINNYTLMDGGIADPIPIKRSIEDGNAKNVLILTREADYIKNPFKHNWILSKKYSQFKGLCKAILNRHKLYNETLKYISHLENTGKVFIIRPTFSPKVKRIEKNKSRLNALYLEGYKDAEKNYDKLLQFLNSN | not soluble
8 | SNAVTATQLAAKATTLYYLHKQAMTDEVSLLLEQALQLEPYNEAALSLIANDHFISFRFQEAIDTWVLLLDSNDPNLDRVTIIESINKAKKLM | soluble
9 | MSYSDYPSDIADYSSFDNMMADICNPSSSSSSNRKRQADPAPDNFAKIPAGMATQPLYFPIHYPVNSGWQSFDVNQVYNNHNMNQPGFGWVALPPPMPHNLQIPDQNSYKPRSGLPVPPPMAEFQDVNGIQQNPNEIFKNAPITSAMCTPESDISTSTNLTPDQDSAQLPLTEQELNEEKNFVVNIESPGKLAHYFLPNVESEQEPNEHIPYPYAKSLFPTFGVPVSSDGNVVAEVVDGRLPAVGTRSKYDITVDEIRRRCGAPEHMNQSALYCFFRKSKKREAINRVKQVLTVHNIPMRTMQRQRKVTCFSPFLEEEATALARDLDSISEEFLPINIIAQEMLEKLMSSGNNLDVCHRMLKNTTATITRVIKTLEVRQPKITGQEEKLKGNNLDLSYHNFSLITHGFGHPNSLSHYRSYLSIVERAVLLCEKIQNGQSLLSNEDVIPGQKPFERMSNEYFVEWQMNLYKKKLAKQMEEVEENKSQRGEHQQIHQHQLYQQHHTNTHPPMPLMPPSQMNLCPPITPIPPQNVYYY | not soluble
10 | MNQRILSTLGFDKVKQQLLQFIVTAQGTNEVSELLPIADENKIQSWLNETQDGLKVQRLRGGIPIPKLENIQPHMKRIEIGADLNGIELAQVGRVLSTTSELTRFFDELSENEVDLEHHHHHH | not soluble
11 | MSLIENLWRGICIISASEDAFSAGETIKEKLKSFEIPVVHYRYKDAEIETIWKCYDAIVFVMALEGATRIVCKYAKSKTEDPAIVCIDDKINYVIPLLGGHWGANDIARELSVILNSTPIITTAAEIKGKLSIERIANILIAKIINPENIVKINAALLRDESICIDGIDVNVNFPENIKVNSEECSYIISLRGDKEYKDKIVVWLKPLKISIGIGSKKDVKMEEIRDGIYKVLERLNLKRERIGIIASIREEVKKIADEFNVRFRLVNEEEINNFMNPCLTPPSKTLIEVGLKGVAEISALIAGGRNSKLILRKIAISRNSTIAVATYEGHHHHHH | soluble
12 | MGSDKIHHHHHHMTKFLIDSLQPKLVAQFARIIDRKQLAQSYLFVGPKGAGKLALAEWIALRLFCQNVQDGAPCGQCPECERILNHNHPDVMVVKTETQSIKVDDIRGLKQEMSKTGVEGNQRVFVVEDADKMTAGAANSLLKFFEEPVPGMTVILTATSKNQLLPTILSRAQVITFQSPDRSAVIAKLEEGGATSQMARVAGRLTGNVADAQALLASATFQDRVTKVFQLLERLADHDPESFVRVQTQLLPIAKDADSQRQVLALIGLAYADALNQHFQVTSMQQLDLPAIGVLAQRSSEQLTTALQAILTAQVRLSQNVTFQSATEQLMLKLLEG | not soluble
13 | AHHHHHHHRSDAAVIVVGAGPAGMMLAGELRLAGVEVVVLERLVERTGESRGLGFTARTMEVFDQRGILPRFGEVETSTQGHFGGLPIDFGVLEGAWQAAKTVPQSVTETHLEQWATGLGADIRRGHEVLSLTDDGAGVTVEVRGPEGKHTLRAAYLVGCDGGRSSVRKAAGFDFPGTAATMEMYLADIKGVELQPRMIGETLPGGMVMVGPLPGGITRIIVCERGTPPQRRETPPSWHEVADAWKRLTGDDIAHAEPVWVSAFGNATRQVTEYRRGRVILAGDSAHIHLPAGGQGMNTSIQDAVNLGWKLGAVVNGTATEELLDSYHSERHAVGKRLLMNTQAQGLLFLSGPEVQPLRDVLTELIQYGEVARHLAGMVSGLEITYDVGTGSHPLLGKRMPALELTTATRETSSTELLHTARGVLLDLADNPRLRARAAAWSDRVDIVTAVPGEVSATSGLRDTTAVLIRPDGHVAWAAPGSHHDLPMALERWFGAPLTG | soluble
14 | MAHHHHHHMLNCFFGAELKPDGVPISFTIPKGTTLVITQCAVTSVVPPQQSTDAGASSSPAVVAKAYNPVTLCVQGHGLPTRFAVCSLSPAQHITYCPLQLLFSKPVSFVLVPQTGSTAAAAAASSSPSPAPHAGKKTGRNQKHSKTTAGAHGAGAEATAVYPTVHLTGYYERAADEDEEDGSMAMDVMESSDDGENDDLSDDE | soluble
15 | MSDTSYKLGITKTFPCNYLPDQQERLLIAVDERLHNSESYGWLMTQGFRRSGDQSYRPSCPNCNACQSIRVLTSDFLPSKSQKRSKKRNSHFIIKQSSQLKDSYYPLFENYINTLHQDGSMYPASFQQFESFLSCNLTQQLFIETWAPANEENGPKEDKLVCVAVTDVLSNGLSAVYTFYHPDYKANGLGVFSILTQLSLSQQMSLPYLYLGYQIDECQKMNYKDRYFPFERFIDGQWLINTKPSVNKAKIAKLEHHHHHH | not soluble
